For assay [1], the target named is VHR (as used in the GST pull-down) (not stated (human or mouse cDNA cloned)) (UniProt P51452).
For assay [2] the target is unchanged. The source holds these as a separate data set.

Chain of UniProt P51452 (P51452 whole entry): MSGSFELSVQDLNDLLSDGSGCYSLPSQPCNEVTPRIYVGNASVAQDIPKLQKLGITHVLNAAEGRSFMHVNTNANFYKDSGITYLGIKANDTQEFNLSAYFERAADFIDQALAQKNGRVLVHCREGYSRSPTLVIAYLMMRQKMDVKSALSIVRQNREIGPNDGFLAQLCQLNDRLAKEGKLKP

For the substance “GST-tagged full-length HSP70 (from UniProt P0DMV8 1-641) (natural protein)”, the in vitro VHR phosphatase activity with pNPP as substrate (5 μg GST-VHR with 10 μg His-HSP70, against VHR alone) in assay [1] worked out at 2 fold. Further, the in vitro VHR phosphatase activity with purified recombinant p-ERK2 as substrate (1 μg GST-VHR with 2 μg His-HSP70, against VHR alone) in assay [2] stood at 2 fold.

(Values after article PMC5150261.)
